In this assay the target is rabbit skeletal muscle actin, polymerized in vitro (F-actin) (rabbit) (UniProt P68135). Nature of the assay: co-sedimentation; F-actin cosedimentation: CaVβ proteins incubated with polymerized actin in polymerization buffer (0.2 mM CaCl2, 50 mM KCl, 2 mM MgCl2, 1 mM ATP, 5 mM HEPES pH 8.0), 25 µM phalloidin; 150,000 × g, 20 min, 4 °C; densitometry of pellet over total; also at 30–150 mM NaCl and after 30 or 90 min of incubation.

The values below come from paper PMC12065904.

In turn, “CaVβ4 R482X (truncated, naturally occurring variant of human CaVβ4 linked to juvenile myoclonic epilepsy) (from UniProt O00305-1 1-431) (domain or fragment)” showed a percent cosedimented with actin greater than 80%.
